Assay results published in patent US7576071B2, “Antithrombotic compound” (sanofi-aventis, priority 2004, dated 2009).
Where a name gives a salt, the structure may show the parent alone.

Tests used:
Bovine factor Xa = test: Determination of anti-factor Xa activity in buffer (microtiter plate method, AT-III mediated); assay type: biochemical; settings: Kabi buffer, human AT-III
Text: II. Determination of Anti-Factor Xa Activity in Buffer
(Microtiter Plate Method)
Anticoagulants can inhibit Xa directly or, like heparin, by potentiating the inhibitory activity of AT-III. Anti-Xa activity can be assessed by determination of the rate of hydrolysis of the chromogenic substrate S-2222 in the presence of AT-III. This assay is used to determine anti-Xa activity of heparinoid preparations in Kabi buffer.
Test medium: Kabi buffer.
Ref. compound: International standard heparin (11.4 anti-Xa U/mg).
Composition of the buffer: NaCl 10.17 g (174 mmol); edetate disodium dihydrate 3.26 g (9.6 mmol); tromethamine (Tris) 6.11 g (50.4 mmol); made up to 1 L with ultrapure H2O *. The pH of the solution is adjusted to 7.4 with hydrochloric acid (0.10 mol/L)
Bovine factor Xa (Kabi Diagnostica, Stockholm, Sweden) is dissolved in Kabi buffer to give a solution containing 1.5 U/mL (0.75 nKat/mL). • 3. S-2222 solution
S-2222 (Kabi Diagnostica) is dissolved in ultrapure H2O to give a solution containing 0.375 mg/mL (0.5 mmol/L). • 4. AT-III solution
Human AT-III (Kabi Diagnostica) is dissolved in Kabi buffer to give a solution containing 0.25 U/mL. A fresh solution has to be prepared daily. • 5. Standard solution of the calibration sample
Standard heparin is dissolved in Kabi buffer to give a standard solution containing approx. 0.25 anti-Xa U/mL.
Each preparation is dissolved in ultrapure H2O and diluted with Kabi buffer to the required concentrations in the range of 0.02-0.2 anti-Xa U/mL
Each test sample (0.05 mL) is pipetted into a well of a microtiter plate at RT. AT-III solution (0.05 mL) is added to each sample and the plate is shaken using a Vari-shaker.
An aliquot of Xa solution (0.05 mL) is pipetted into each well 10 min following addition of AT-III solution and the plate is shaken again. Exactly 2 min following addition of Xa solution, 0.1 mL S-2222 solution is pipetted into each well and the plate is shaken again. For all additions a 12-channel pipette is used.
The remaining amount of Xa catalyses the hydrolysis of S-2222, the rate of which is measured photometrically following incubation periods of 2 and 22 min respectively at RT. The absorbance of each sample is measured at 405 nm using a Reader Microelisa, model 310C (Organon Teknika, Oss, The Netherlands) and the increase in absorbance (ΔOD) is calculated. Each test sample is determined in duplicate. With every 10 samples, a blank (0.05 mL Kabi buffer) is included.
From an aliquot of the standard solution of the calibration sample a range of dilutions is made (dilution factor 1,3 for heparin samples). The resulting standard samples (approx. 15 samples) should contain between 0.01-0.25 anti-Xa U/mL. […]
For each sample the mean anti-Xa activity in U/mL is determined using the calibration curve. […]

[1] = Pharmacokinetics (half-life) in guinea pigs; settings: 0.5 μmol/kg i.v., ex-vivo plasma anti-Xa activity, compared to reference GpIIb/IIIa antagonists (XVII, XIX, XX by LC-MS/MS)
Experimental: Guinea pigs (DH) were administered 0.5 μmol/kg (i.v.) of anticoagulant. The half-life of the pentasaccharide XXII, the “parent” of the oligosaccharide part of the conjugates, and conjugate VIII were indirectly assigned by ex-vivo determination of plasma anti-Xa activity at specific time-intervals as described above. The half-lives of the reference GPIIb/IIIa antagonists XVII, XIX and XX (see Scheme 10) were determined by measuring the plasma concentration at specific time-intervals using LC-MS/MS.

For `CO[C@H]1O[C@H](COS(=O)(=O)O)[C@@H](O[C@@H]2O[C@@H](C(=O)O)[C@@H](O[C@H]3O[C@H](COS(=O)(=O)O)[C@@H](O[C@@H]4O[C@H](C(=O)O)[C@@H](O[C@H]5O[C@H](COS(=O)(=O)O)[C@@H](OCCOCCOCCOCCNC(=O)COCCOCCOCCOCCNC(=O)[C@H](CC(=O)O)NC(=O)[C@@H]6CCCN(C(=O)CCC7CCNCC7)C6)[C@H](OC)[C@H]5OC)[C@H](OC)[C@H]4OC)[C@H](OS(=O)(=O)O)[C@H]3OS(=O)(=O)O)[C@H](OC)[C@H]2OC)[C@H](OC)[C@H]1OS(=O)(=O)O` [Compound VIII, sodium salt], the Anti-Xa activity (Bovine factor Xa; substrate S-2222, calibrated against standard heparin) was 605 ± 43 U/mg, the Anti-Xa activity (Bovine factor Xa; substrate S-2222, per nmol (from U/mg and Mw)) was 1.45 U/nmol and the half life [1] was “significantly prolonged”.
